# Data taken from article PMC12730314, “The Role of Surfactants in Stabilizing Fluorescence Anisotropy for Protein–Aptamer Binding Affinity Measurements”.
# How the values were obtained:
# [1] = biological target: T1, thrombin (human plasma) (Homo sapiens, UniProt P00734;P00734 328-363;364-622); assay: fluorescence anisotropy; 0.1% Tween 20, 25 nM aptamer; Hill fit; Thrombin: TGK (192 mM Tris, 5 mM KH2PO4, 25 mM glycine hydrochloride; pH not stated) +/- 0.1% Tween 20, thrombin stock in 1 mg/mL BSA, 25 C, 40 min; HSA: PBS +
# [2] = biological target: T1, thrombin (human plasma); assay: fluorescence anisotropy; 0.1% Tween 20, 50 nM aptamer; Hill fit; Thrombin: TGK (192 mM Tris, 5 mM KH2PO4, 25 mM glycine hydrochloride; pH not stated) +/- 0.1% Tween 20, thrombin stock in 1 mg/mL BSA, 25 C, 40 min; HSA: PBS +
# [3] = biological target: T1, thrombin (human plasma); assay: fluorescence anisotropy; 0.1% Tween 20, 75 nM aptamer; Hill fit; Thrombin: TGK (192 mM Tris, 5 mM KH2PO4, 25 mM glycine hydrochloride; pH not stated) +/- 0.1% Tween 20, thrombin stock in 1 mg/mL BSA, 25 C, 40 min; HSA: PBS +
# [4] = biological target: T1, thrombin (human plasma); assay: fluorescence anisotropy; no surfactant, 75 nM aptamer; Hill fit; Thrombin: TGK (192 mM Tris, 5 mM KH2PO4, 25 mM glycine hydrochloride; pH not stated) +/- 0.1% Tween 20, thrombin stock in 1 mg/mL BSA, 25 C, 40 min; HSA: PBS +
# [5] = biological target: human serum albumin (HSA) (Homo sapiens, UniProt P02768 25-609); assay: fluorescence anisotropy; PBS + 5 mM MgCl2, no Tween 20; saturable, poor 1:1 fit; 25 C, 40 min; HSA: PBS +; details: protein: commercial
# human serum albumin (HSA), sequence (P02768 25-609): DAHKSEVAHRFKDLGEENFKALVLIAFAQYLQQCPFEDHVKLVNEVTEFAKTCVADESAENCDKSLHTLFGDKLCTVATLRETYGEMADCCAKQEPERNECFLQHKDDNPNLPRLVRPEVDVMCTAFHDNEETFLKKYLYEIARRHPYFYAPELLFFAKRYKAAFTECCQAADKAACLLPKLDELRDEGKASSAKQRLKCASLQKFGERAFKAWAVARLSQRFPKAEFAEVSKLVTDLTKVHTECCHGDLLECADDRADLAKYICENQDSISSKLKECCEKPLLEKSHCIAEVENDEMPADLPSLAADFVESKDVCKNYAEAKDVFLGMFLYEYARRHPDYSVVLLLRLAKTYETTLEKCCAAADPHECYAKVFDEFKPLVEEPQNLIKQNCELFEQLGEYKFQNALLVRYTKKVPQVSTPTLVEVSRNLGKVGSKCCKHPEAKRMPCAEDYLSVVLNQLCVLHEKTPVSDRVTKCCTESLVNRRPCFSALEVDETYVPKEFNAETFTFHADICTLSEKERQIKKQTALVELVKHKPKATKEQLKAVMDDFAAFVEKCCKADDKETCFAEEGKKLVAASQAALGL
Binder,Kd [1],Kd [2],Kd [3],Kd [4],binding result [5]
AGTCCGTGGTAGGGCAGGTTGGGGTGACT (structured_DNA) [TR-labeled thrombin-binding 29mer],35 nM,53 nM,30 nM,54 nM,–
TCCACGATGTAGGATCCACATGAGCGCTCCTGTTACCCTG (ssDNA) [TR-labeled s10yh2],–,–,–,–,binds
